Measured values taken from ChEMBL document CHEMBL1908105, “UDP-glucuronosyltransferases and clinical drug-drug interactions” (Pharmacol Ther, 2005).

Key:
[1] = substrate: O=C(c1ccc(OCCN2CCCCC2)cc1)c1c(-c2ccc(O[C@H]3O[C@H](C(=O)O)[C@@H](O)[C@H](O)[C@H]3O)cc2)sc2cc(O)ccc12; experiment: (§1) Drug glucuronidation reaction catalyzed by human recombinant UGT1A9
[2] = substrate: CC(=O)Nc1ccc(O)cc1; experiment: as §1
[3] = substrate: Cc1ccc(C(=O)c2cc(O)c(O)c([N+](=O)[O-])c2)cc1; experiment: as §1
[4] = substrate: COc1c(C)c2c(c(O)c1C/C=C(\C)CCC(=O)O)C(=O)OC2; experiment: as §1
[5] = substrate: CCC[S+]([O-])CCCN(CC)CC(O)COc1ccc(C#N)cc1; experiment: as §1
[6] = substrate: CCN(CC)C(=O)/C(C#N)=C/c1cc(O)c(O)c([N+](=O)[O-])c1; experiment: as §1
[7] = substrate: CN1CC[C@H](c2c(O)cc(O)c3c(=O)cc(-c4ccccc4Cl)oc23)[C@H](O)C1; experiment: as §1
[8] = substrate: CCc1c2c(nc3ccc(O)cc13)-c1cc3c(c(=O)n1C2)COC(=O)[C@]3(O)CC; experiment: as §1
[9] = substrate: CN1CC[C@]23c4c5ccc(O[C@@H]6O[C@H](C(=O)O)[C@@H](O)[C@H](O)[C@H]6O)c4O[C@H]2[C@@H](O)C=C[C@H]3[C@H]1C5; experiment: as §1
[10] = substrate: O=C(c1ccc(OCCN2CCCCC2)cc1)c1c(-c2ccc(O)cc2)sc2cc(O[C@@H]3O[C@H](C(=O)O)[C@@H](O)[C@H](O)[C@H]3O)ccc12; experiment: as §1
[11] = substrate: CC(C)c1cccc(C(C)C)c1O; experiment: not read
[12] = substrate: O=C1Nc2ccc(Cl)cc2C(c2ccccc2)=N[C@@H]1O; experiment: not read
[13] = substrate: O=C(c1ccc(OCCN2CCCCC2)cc1)c1c(-c2ccc(O[C@H]3O[C@H](C(=O)O)[C@@H](O)[C@H](O)[C@H]3O)cc2)sc2cc(O)ccc12; experiment: (§2) Drug glucuronidation reaction catalyzed by human recombinant UGT1A8
[14] = substrate: COc1c(C)c2c(c(O)c1C/C=C(\C)CCC(=O)O)C(=O)OC2; experiment: as §2
[15] = substrate: O=C1CC[C@@]2(O)[C@H]3Cc4ccc(O)c5c4[C@@]2(CCN3CC2CC2)[C@H]1O5; experiment: as §2
[16] = substrate: CN1CC[C@]23c4c5ccc(O[C@@H]6O[C@H](C(=O)O)[C@@H](O)[C@H](O)[C@H]6O)c4O[C@H]2[C@@H](O)C=C[C@H]3[C@H]1C5; experiment: as §2
[17] = substrate: O=C(c1ccc(OCCN2CCCCC2)cc1)c1c(-c2ccc(O)cc2)sc2cc(O[C@@H]3O[C@H](C(=O)O)[C@@H](O)[C@H](O)[C@H]3O)ccc12; experiment: as §2
[18] = substrate: O=C1[C@H](CC[C@H](O)c2ccc(F)cc2)[C@@H](c2ccc(O)cc2)N1c1ccc(F)cc1; experiment: (§3) Drug glucuronidation reaction catalyzed by human recombinant UGT2B7
[19] = substrate: COc1cccc2c1C(=O)c1c(O)c3c(c(O)c1C2=O)C[C@@](O)(C(=O)CO)C[C@@H]3O[C@H]1C[C@H](N)[C@@H](O)[C@H](C)O1; experiment: as §3
[20] = substrate: CCC[S+]([O-])CCCN(CC)CC(O)COc1ccc(C#N)cc1; experiment: as §3
[21] = substrate: CC(C(=O)O)c1cccc(C(=O)c2ccccc2)c1; experiment: as §3
[22] = substrate: C=CC[C@@H]1/C=C(\C)C[C@H](C)C[C@H](OC)[C@H]2O[C@@](O)(C(=O)C(=O)N3CCCC[C@H]3C(=O)O[C@H](/C(C)=C/[C@@H]3CC[C@@H](O)[C@H](OC)C3)[C@H](C)[C@@H](O)CC1=O)[C@H](C)C[C@@H]2OC; experiment: as §3
[23] = substrate: C=CCN1CC[C@]23c4c5ccc(O)c4O[C@H]2[C@@H](O)C=C[C@H]3[C@H]1C5; experiment: as §3
[24] = substrate: CO[C@]12CC[C@@]3(C[C@@H]1[C@](C)(O)C(C)(C)C)[C@H]1Cc4ccc(O)c5c4[C@@]3(CCN1CC1CC1)[C@H]2O5; experiment: as §3
[25] = substrate: CC(C)Cc1ccc(C(C)C(=O)O)cc1; experiment: as §3
[26] = substrate: COc1ccc(Cl)cc1[C@]1(F)C(=O)Nc2cc(C(F)(F)F)ccc21; experiment: as §3
[27] = substrate: NC(=O)N1c2ccccc2C=Cc2ccccc21; experiment: as §3
[28] = substrate: CS(=O)(=O)c1ccc(C2=C(c3ccccc3)C(=O)OC2O)cc1; experiment: as §3
[29] = substrate: O=C1Nc2ccc(Cl)cc2C(c2ccccc2)=N[C@H]1O; experiment: not read
[30] = substrate: Cc1c(Cl)cccc1Nc1ncccc1C(=O)O; experiment: not read

B1: UDP-glucuronosyltransferase 1A9 (Homo sapiens) (protein)
chain: MACTGWTSPLPLCVCLLLTCGFAEAGKLLVVPMDGSHWFTMRSVVEKLILRGHEVVVVMPEVSWQLGRSLNCTVKTYSTSYTLEDLDREFKAFAHAQWKAQVRSIYSLLMGSYNDIFDLFFSNCRSLFKDKKLVEYLKESSFDAVFLDPFDNCGLIVAKYFSLPSVVFARGILCHYLEEGAQCPAPLSYVPRILLGFSDAMTFKERVRNHIMHLEEHLLCHRFFKNALEIASEILQTPVTEYDLYSHTSIWLLRTDFVLDYPKPVMPNMIFIGGINCHQGKPLPMEFEAYINASGEHGIVVFSLGSMVSEIPEKKAMAIADALGKIPQTVLWRYTGTRPSNLANNTILVKWLPQNDLLGHPMTRAFITHAGSHGVYESICNGVPMVMMPLFGDQMDNAKRMETKGAGVTLNVLEMTSEDLENALKAVINDKSYKENIMRLSSLHKDRPVEPLDLAVFWVEFVMRHKGAPHLRPAAHDLTWYQYHSLDVIGFLLAVVLTVAFITFKCCAYGYRKCLGKKGRVKKAHKSKTH
Q: For B1, which Km [1] is on record?
A: 13 µM

Q: What about the Vmax [1] of the same protein?
A: 0.00025 µmol/min/mg

Q: And the Km [2]?
A: 20900 µM

Q: What about the Vmax [2] of the same protein?
A: 0.0063 µmol/min/mg

Q: And the Km [3]?
A: 66 µM

Q: And the Vmax [3]?
A: 0.00048 µmol/min/mg

Q: And the Km [4]?
A: 291 µM

Q: And the Vmax [4]?
A: 0.00838 µmol/min/mg

Q: And the Km [5]?
A: 1060 µM

Q: And the Vmax [5]?
A: 9.2e-05 µmol/min/mg

Q: What about the Km [6] of the same protein?
A: 10 µM

Q: And the Vmax [6]?
A: 0.0018 µmol/min/mg

Q: What about the Km [7] of the same protein?
A: 37 µM

Q: And the Vmax [7]?
A: 5.6e-05 µmol/min/mg

Q: And the Km [8]?
A: 13 µM

Q: What about the Vmax [8] of the same protein?
A: 2e-05 µmol/min/mg

Q: What about the Km [9] of the same protein?
A: 37400 µM

Q: And the Vmax [9]?
A: 3.2e-05 µmol/min/mg

Q: And the Km [10]?
A: 25 µM

Q: What about the Vmax [10] of the same protein?
A: 0.00032 µmol/min/mg

Q: And the Km [11]?
A: 37 µM

Q: And the Vmax [11]?
A: 0.0028 µmol/min/mg

Q: What about the Km [12] of the same protein?
A: 12 µM

Q: What about the Vmax [12] of the same protein?
A: 3e-06 µmol/min/mg

B2: UDP-glucuronosyltransferase 1A8 (Homo sapiens) (protein)
chain: MARTGWTSPIPLCVSLLLTCGFAEAGKLLVVPMDGSHWFTMQSVVEKLILRGHEVVVVMPEVSWQLGKSLNCTVKTYSTSYTLEDLDREFMDFADAQWKAQVRSLFSLFLSSSNGFFNLFFSHCRSLFNDRKLVEYLKESSFDAVFLDPFDACGLIVAKYFSLPSVVFARGIACHYLEEGAQCPAPLSYVPRILLGFSDAMTFKERVRNHIMHLEEHLFCQYFSKNALEIASEILQTPVTAYDLYSHTSIWLLRTDFVLDYPKPVMPNMIFIGGINCHQGKPLPMEFEAYINASGEHGIVVFSLGSMVSEIPEKKAMAIADALGKIPQTVLWRYTGTRPSNLANNTILVKWLPQNDLLGHPMTRAFITHAGSHGVYESICNGVPMVMMPLFGDQMDNAKRMETKGAGVTLNVLEMTSEDLENALKAVINDKSYKENIMRLSSLHKDRPVEPLDLAVFWVEFVMRHKGAPHLRPAAHDLTWYQYHSLDVIGFLLAVVLTVAFITFKCCAYGYRKCLGKKGRVKKAHKSKTH
Q: Which Km [13] does the source give for B2 here?
A: 59 µM

Q: And the Vmax [13]?
A: 0.002 µmol/min/mg

Q: What about the Km [14] of the same protein?
A: 298 µM

Q: And the Vmax [14]?
A: 0.0326 µmol/min/mg

Q: And the Km [15]?
A: 1550 µM

Q: What about the Vmax [15] of the same protein?
A: 0.000495 µmol/min/mg

Q: What about the Km [16] of the same protein?
A: 26000 µM

Q: What about the Vmax [16] of the same protein?
A: 1.3e-05 µmol/min/mg

Q: What about the Km [17] of the same protein?
A: 8 µM

Q: What about the Vmax [17] of the same protein?
A: 0.00061 µmol/min/mg

Q: And the Km [11]?
A: 412 µM

Q: And the Vmax [11]?
A: 0.00382 µmol/min/mg

B3: UDP-glucuronosyltransferase 2B7 (Homo sapiens) (protein)
chain: MSVKWTSVILLIQLSFCFSSGNCGKVLVWAAEYSHWMNIKTILDELIQRGHEVTVLASSASILFDPNNSSALKIEIYPTSLTKTELENFIMQQIKRWSDLPKDTFWLYFSQVQEIMSIFGDITRKFCKDVVSNKKFMKKVQESRFDVIFADAIFPCSELLAELFNIPFVYSLSFSPGYTFEKHSGGFIFPPSYVPVVMSELTDQMTFMERVKNMIYVLYFDFWFEIFDMKKWDQFYSEVLGRPTTLSETMGKADVWLIRNSWNFQFPYPLLPNVDFVGGLHCKPAKPLPKEMEDFVQSSGENGVVVFSLGSMVSNMTEERANVIASALAQIPQKVLWRFDGNKPDTLGLNTRLYKWIPQNDLLGHPKTRAFITHGGANGIYEAIYHGIPMVGIPLFADQPDNIAHMKARGAAVRVDFNTMSSTDLLNALKRVINDPSYKENVMKLSRIQHDQPVKPLDRAVFWIEFVMRHKGAKHLRVAAHDLTWFQYHSLDVIGFLLVCVATVIFIVTKCCLFCFWKFARKAKKGKND
Q: Which results are given for B3?
A: Km [18]: 21 µM; Vmax [18]: 5e-05 µmol/min/mg; Km [19]: 149 µM; Vmax [19]: 9.9e-05 µmol/min/mg; Km [20]: 970 µM; Vmax [20]: 2.1e-05 µmol/min/mg; Km [21]: 112 µM; Vmax [21]: 0.00045 µmol/min/mg; Km [22]: 449 µM; Vmax [22]: 0.000588 µmol/min/mg; Km [23]: 260 µM; Vmax [23]: 0.000461 µmol/min/mg; Km [24]: 24 µM; Vmax [24]: 2.6e-05 µmol/min/mg; Km [25]: 55 µM; Vmax [25]: 0.000477 µmol/min/mg; Km [26]: 14 µM; Vmax [26]: 0.00029 µmol/min/mg; Km [27]: 214 µM; Vmax [27]: 1e-06 µmol/min/mg; Km [28]: 42 µM; Vmax [28]: 4.7e-05 µmol/min/mg; Km [29]: 203 µM; Vmax [29]: 2e-06 µmol/min/mg; Km [30]: 64 µM; Vmax [30]: 0.00022 µmol/min/mg; Km [12]: 333 µM; Vmax [12]: 7e-06 µmol/min/mg
